Data as given in the DeepSol protein solubility set.

experiment: soluble on expression in E. coli; label from the status in PepcDB or PDB records

Row | Sequence | soluble on expression in E. coli
1 | MPLTPADVHNVAFNKPPIGKRGYNEDEVDQFLDLVEDALVQFQEENEDLKQQVEELEAQVAGGTSSAASSSTAGAATAAASKSVDEAALRKEIEEKLRSEYASKLDDASKAAQKAQNDAKSAQDQLQRAQADAKAARDEAEKAKAEAKSAASSSTTKAAAVGAVGAGTGAAVATGAANVDTHMQAAKVLGLAQEMADRLTSEARSESKSMLDEAREAAEKQIEEANSTSNRTLEDARANAEKQIAEAQNRADTLVNEADAKAKNLVSEAEKKSAATLAASTSRAEAQIRQAEDKANALQADAERKHTETMAAVKEQQNALETRIAELQTFEREYRTRLKSLLEGQLEELNARGSSAPTNNKPSGE | not soluble
2 | MEDVVLPLKKVLRVATEADYKCVAENGDSCQKAFLLCDEKIRERELDMSLVDVDYTFDRNKIIFYFTAEGRVDFRELVKDLASVFRTRIELRQIGVRDEAKLEHHHHHH | not soluble
3 | MGSDKIHHHHHHMVEEQHVTQYGSLLKPCMSRLENLLVHQYVECWLYWSCYETETDTRIRGIWQFMFEQELKHLHIALELLRQYEKKDWQEVIPDAEFPAPLVLESNIEYVRCVLGSTVNDTACRERYVDVRNNAPETFIRYQRMVNDPVRNVMSHTFIEDYIRKNGEDYRFEVAPNPVPELRDRTKDNICVGRQPLCRNRY | not soluble
4 | MPITIGNGFLKSEILTNSPRNTKEAWWKVLWEKIKDFFFSTGKAKADRCLHEMLFAERAPTRERLTEIFFELKELACASQRDRFQVHNPHENDATIILRIMDQNEENELLRITQNTDTFSCEVMGNLYFLMKDRPDILKSHPQMTAMIKRRYSEIVDYPLPSTLCLNPAGAPILSVPLDNIEGYLYTELRKGHLDGWKAQEKATYLAAKIQSGIEKTTRILHHANISESTQQNAFLETMAMCGLKQLEIPPPHTHIPIEKMVKEVLLADKTFQAFLVTDPSTSQSMLAEIVEAISDQVFHAIFRIDPQAIQKMAEEQLTTLHVRSEQQSGCLCCFLLEHHHHHH | soluble
5 | GKSTTLFSRHTKAIVWGMQTRAVQGMLDFDYVCSRDEPSVAAMVYPFTGDHKQKFYWGHKEILIPVFKNMADAMRKHPEVDVLINFASLRSAYDSTMETMNYAQIRTIAIIAEGIPEALTRKLIKKADQKGVTIIGPATVGGIKPGCFKIGNTGGMLDNILASKLYRPGSVAYVSRSGGMSNELNNIISRTTDGVYEGVAIGGDRYPGSTFMDHVLRYQDTPGVKMIVVLGEIGGTEEYKICRGIKEGRLTKPIVCWCIGTCATMFSSEVQFGHAGACANQASETAVAKNQALKEAGVFVPRSFDELGEIIQSVYEDLVANGVIVPAQEVPPPTV | soluble
6 | MAVLYLVGTPIGNLADITYRAVDVLKRVDMIACEDTRVTSKLCNHYDIPTPLKSYHEHNKDKQTAFIIEQLELGLDVALVSDAGLPLISDPGYELVVAAREANIKVETVPGPNAGLTALMASGLPSYVYTFLGFLPRKEKEKSAVLEQRMHENSTLIIYESPHRVTDTLKTIAKIDATRQVSLGRELTKKFEQIVTDDVTQLQALIQQGDVPLKGEFVILIEGAKANNEISWFDDLSINEHVDHYIQTSQMKPKQAIKKVAEERQLKTNEVYNIYHQIS | not soluble
7 | MNWPLLYDMQRMLDRRIETEHGLMEEDLFARKQLAFLVELGELANETRCFKFWSIKPPAPAERVLEEYVDGLHFLLSLGLECGLFYEENEAPSAGRPLVEQFLAVFRAAERFGETRARGEYDALFAEYWRLGVALGFSSDDIEAAYRRKNEVNHKRQNERY | not soluble
8 | NKDNLDLAGLTSLLSEKIKEFLQEKKMQSFYQQELETVESLQSLASRPVTHSTGSDQVELKDSGTSGVAQRVFKNALQLLQEKGLVFQRDSGSDKLYYVTTKDKDLQ | soluble
9 | VAEEATGDWGQIFTAFNELSQTLAEYEEERVKHRNELQQERDRFRRLFQSIPEPAVVVEYTGNKTLIHNVNEAFEETFGYEASNAVGGDINDFIVPDGSLEEAESIDQLSSSGKQVTHEVRREAADGKRDFLLRSTPAVDGE | not soluble
10 | TDLSAQKRLAADVLDVGKNRVWFNPERQGDIADAITREDVRELVDEGAIQAKDKKGNSRGRARERQKKRAKGHQKGAGSRKGKAGARQNSKEDWESRIRAQRTKLRELRDEGTLSSSQYRDLYDKAGGGEFDSVADLERYIDANHGDA | soluble
11 | MGSDKIHHHHHHMKKYFPSSELIINEDGSVFHLHVKPEWLADKVILVGDPGRVALVASHFENKECEVESREFKTITGTYKGKRITVVSTGIGCDNIDIVMNELDALANINFETREEKEKFRQLELVRIGTCGGLQPNTPVGTFVCSQKSIGFDGLLNFYAGRNAVCDLPFERAFLNHMGWSGNMCAPAPYVIDASEELIDRIAKEDMVRGVTIAAGGFFGPQGRELRIPLADPKQNDKIEAFEYKGFKITNFEMESSALAGLSRLMGHKAMTVCMVIANRLIKEANTGYKNTIDTLIKTVLDRI | not soluble
12 | MSRMIFLFLIPVVTSCIPTQQIEMPCPTDWEKFERPSGPWCVKLFVGLYLQGNRNEASARCAAEGAVLSGVQNQAELNAMTRQFTKLRYGYFWVGAMRKTSCLMSQLTATCTALNSFEWTDGSTTGTDGFIWKTGDPNNYLYNLYE | not soluble
13 | MFFERHGGGERAILVHLDGQDPEAREDPQEFQELALSAGAETVAFVSVPRHRPTAKYLVGSGKVEELRDLVKAEQVDLVIFNHILTPSQERNLERVFECRVIDRTGLILDIFAQRARTHEGKLQVELAQLEHMSTRLVRGWTHLERQKGGIGLRGPGETQLETDRRLLRVRLRQIKARLEKVRSQREQARRGRKRADIPSVSLVGYTNAGKSTLFNAVTASDVFAADQLFATLDPTLRRLELDDLGPIVLADTVGFIRHLPHKLVEAFRATLEESSNSDLLLHVIDAHEPERMAQIEQVMVVLGEIGAQDLPILEVYNKLDLLEGVEPQIQRDPDGKPQRVWLSARDGQGLDLLKQAIAELLGEDLFVGTLRLPQRFARLRAQFFQLNAVQKEDHDDEGVSLLAVRLPRAELNRLVSREGMQPSEFIEQHTLQLEHHHHHH | soluble
14 | MSQDNLSAVLYGVDDLRLEQVPIPKPGPNQVLVKVHTVGICGSDVHYWTHGAIGPFVVKEPMIVGHETSGIVSEVGNEVKHLKVGDRIAMEPGLPCKLCEHCKTGRYNLCPEMRFFATPPVHGTLSRFVVHDADFCFKLPDNLSFEDGALIEPLSVAIHACRRGNVQMGHRVLVLGAGPIGVLNLITAKAVGAGKVVITDLDDGRLALAKKLGADATINVKGKSLDAVKSEIITALGDQQPDVCIECTGAQPSIETAITTTKSGGVIVLVGLGADRVEIPIIESATREVDMRGIFRYVNCYPTAIELISSGKLNLSGLTRAHYKLEETQEAFKRTQKADVIKVFIQC | not soluble
15 | HQQQRSVMTEEYKVPDGMVGFIIGRGGEQISRIQQESGCKIQIAPDSGGLPERSCMLTGTPESVQSAKRLLDQIVEKGR | soluble
16 | MKINLDRTSSGFCIGVQGTIHVAEEKLAQSGELYCLGDVVHNEVEVKRLEALGMETIDIPAFEELRNAEVLIRAHGEPPSTYETARKNNLAITDTTCPVVAKLQRTAKMLHQLGYQVVIYGKKVHPEVIGINGQCDDEGVVIKHPDLSDPEEIAPLDLSRKTALISQTTMDVPGFYELKRNLEKLFAEHGHRNPGTQSGEWMAVRDIDITAEKTGALAMPKLVFKDTICRQVSSRNGKLRDFALANDCIVFAAGRKSSNGQVLYSICKDANPHSYFIEDVDEIRPEWFVGENGKPVESVGICGATSTPMWLLEKVANYIDKTFGDGSSNPNALEHHHHHH | not soluble
17 | MGLIDVLKSFKSPSGREIRILLLGLDNAGKTTILKQLSSEDVQHVTPTKGFNVKTVAAMGDIRLNVWDIGGQRSIRPYWSNYYENIDTLIFVIDSNDKKRFDEMNIELGELLDEEKLRKVPVLIFANKQDLVTAASSEEITRKLNLDLLRDRTWHIQACSALKNEGINDGITWVASNLKPASKK | not soluble
18 | MSETAKRLLRRVEAIDAAAAENRARAEQYRQMTEKLAAVTGTATSPDGVVTVVAGPDGSVKEVTFSEQVRKADPAALSASVVHTIAQARVNATREQAEIMRRNLDDTHLLDQVLAEDARLFGDKQPEDPGPPPPAAVPTGGTPAGRPRTQPARQAYNDDDSFEDFQVLRRS | not soluble
19 | MVLEHCRDAIESHGVETDIISLRGMKIESCRACLSCAKKHRCRIDDGLNDIIDRIRDSEGFIVATPVYFGTARGDLMAALQRIGMVSRASDGFLSWKVGGPIAVARRGGHTATIQELLMFYFINDMIVPGSTYWNMVFGWAPGEVEDDSEGIETIRRFGENVAELIKRINGGSLEHHHHHH | not soluble
20 | ARKIGIIGLGNVGAAVAHGLIAQGVADDYVFIDANEAKVKADQIDFQDAMANLEAHGNIVINDWAALADADVVISTLGNIKLQQDNPTGDRFAELKFTSSMVQSVGTNLKESGFHGVLVVISNPVDVITALFQHVTGFPAHKVIGTGTLLDTARMQRAVGEAFDLDPRSVSGYNLGEHGNSQFVAWSTVRVMGQPIVTLADAGDIDLAAIEEEARKGGFTVLNGKGYTSYGVATSAIRIAKAVMADAHAELVVSNRRDDMGMYLSYPAIIGRDGVLAETTLDLTTDEQEKLLQSRDYIQQRFDEIVDTL | soluble
21 | MGSDKIHHHHHHMTSREQIIELIKSGEFTQAELARQMGVNSGALSSYLGGKYKGNVENIENVLASWLSTRDKKEKVFVEAPHFIEIPTADKVFKALDMARFCKTIVPIFGASGVGKTKACQEYKKRYQNVWMITISPSRASLNAFLYELALELGIKDAPRRKDRLSRLILDNLKDTEGLVIVDESDHLTYDSIEELRYLQEKAEVGFALIGNNKVYTKMQGGANQAHEYARLWNRIGKKCQIKASKKGDIKAVAQAWGLDVQDKDLMTVLYDIGGKAGGLRALTQYLRLAGMTAKGQGTGITLDLILTAQAEMTGSE | not soluble
22 | MGSDKIHHHHHHMRDFLKSAFGRSKPKQLRILPQDVTIEIGQGQTLLEAALANGIAYPHDCTVGTCASCKTRLKQGRVREATPFGYTLSKDELDAGYILACQAFPKDELTVVEIDSSAGDLMPAEKYTANIIATEPLTHDILRVTVQTDRAVSYAAGQYANLRKAGGGRARSYSFANAPQRKGRTLLEFYIRKVPGGEFTESLFGGELKGVSLEMEAPLGTFHLRAGDSHMVCIAGGSGLAPLVSILEHARGNRIKRDCTLLFGARTQADLYQLDAIGSIASNWQGDFRFIPVLSDEPLDSDWKGARGLVTDHIAPGFCEGGEGYLCGPPLMIDAAIASLAKHGIPLEKVFYDKFTDSRDR | not soluble
23 | MKRILCITGTRADFGKLKPLLAYIENHPDLELHLIVTGMHMMKTYGRTYKEVTRENYQHTYLFSNQIQGEPMGAVLGNTITFISRLSDEIEPDMVMIHGDRLEALAGAAVGALSSRLVCHIEGGELSGTVDDSIRHSISKLSHIHLVANEQAVTRLVQMGEKRKHIHIIGSPDLDVMASSTLPSLEEVKEYYGLPYENYGISMFHPVTTEAHLMPQYAAQYFKALELSGQNIISIYPNNDTGTESILQELLKYQSDKFIAFPSIRFEYFLVLLKHAKFMVGNSSAGIREAPLYGVPSIDVGTRQSNRHMGKSIIHTDYETKNIFDAIQQACSLGKFEADDTFNGGDTRTSTERFAEVINNPETWNVSAQKRFIDLNL | not soluble
24 | CLTRISRPWLVTSCIWNKQLIRRAVVWLCGLTGKPILKLTNKDYTENGLGELLAKYGSAYEVNIKLFNDIQHTITGWPGGKPNADDSSRPERALPYPKRVVIFSPHPDDDVISMGGTFHKLVNQGHDVHVAYQTSGNIAVGDEEVIRYVSYLRNVCRQYGHESSPILAKAEEVRHYLMHKKIEGDPEQEDIRFMKGTIRREEARTACRYLGLPEDHVHFLDLPFYETGLIRKNPLGEEDVRIIMALLEEIQPHRIFVAGDLADPHGTHRICLNAVLAAIDELKEESWFKEDCRVWMYRGAWAEWEIDYIEMAVPMSPDELRFKRNSILKHQSQMESAPFLGDDERLFWQRAEDRNRQTATLYEKLGLASYEAIEAFVQYRPVE | not soluble
